# From US20140170153A1 (Novo Nordisk, published 2014)
# Where a chain is given by its changes, count along the chain named. In names and notes the source's numbering stands. Several values for one entry are separate records, joined by “and”; a condition that tells them apart may be missing. Equal values may be shown once.
# B1: mAb63 (mAb37 variant, light chain R24K) (antibody, human IgG4 S228P, kappa, V domains shown)
# VH: EVQLVESGGGLVKPGGSLRLSCAASGFIFSSYSMNWVRQAPGKGLEWVSSITSGSYYIHYADSVKGRFTISRDNAKNSLYLQMNSLRAEDTAVYYCVRERGWGYYGMDVWGQGTTVTVSS
# VL: AIQLTQSPSSLSASVGDRVTITCKASQDIDSALAWYQQKPGKAPKILIHDASSLESGVPSRFSGSGSGTDFTLTISSLQPEDFATYYCQQFNSYPYTFGQGTKLEIKR
# B2: Fab35 (Fab fragment of mAb14/mAb37) (Fab, V domains shown)
# VH: B1 VH
# VL: B1 VL with K24R
# notes: also called anti-IL-21 Fab35
# B3: mAb64 (mAb37 variant, light chain Q27N) (antibody, human IgG4 S228P, kappa, V domains shown)
# VH: B1 VH
# VL: B1 VL with K24R, Q27N
# B4: Fab59 (Fab35 with L, Q27N mutation; Fab fragment of mAb64) (Fab, V domains shown)
# VH: B1 VH
# VL: B1 VL with K24R, Q27N
# notes: also called aIL-21 Fab59
# B5: Fab56 (Fab35 with H: D62E mutation; Fab fragment of mAb61) (Fab, V domains shown)
# VH: B1 VH with D62E
# VL: B1 VL with K24R
# notes: also called aIL-21 Fab56
# B6: Fab60 (Fab35 with L, D30E mutation; Fab fragment of mAb65) (Fab, V domains shown)
# VH: B1 VH
# VL: B1 VL with K24R, D30E
# notes: also called aIL-21 Fab60
# B7: Fab57 (Fab35 with H: K65R; Fab fragment of mAb62) (Fab, V domains shown)
# VH: B1 VH with K65R
# VL: B1 VL with K24R
# notes: also called aIL-21 Fab57
# B8: mAb37 (hinge stabilized S241P version of mAb14) (antibody, human IgG4 S228P, kappa)
# heavy: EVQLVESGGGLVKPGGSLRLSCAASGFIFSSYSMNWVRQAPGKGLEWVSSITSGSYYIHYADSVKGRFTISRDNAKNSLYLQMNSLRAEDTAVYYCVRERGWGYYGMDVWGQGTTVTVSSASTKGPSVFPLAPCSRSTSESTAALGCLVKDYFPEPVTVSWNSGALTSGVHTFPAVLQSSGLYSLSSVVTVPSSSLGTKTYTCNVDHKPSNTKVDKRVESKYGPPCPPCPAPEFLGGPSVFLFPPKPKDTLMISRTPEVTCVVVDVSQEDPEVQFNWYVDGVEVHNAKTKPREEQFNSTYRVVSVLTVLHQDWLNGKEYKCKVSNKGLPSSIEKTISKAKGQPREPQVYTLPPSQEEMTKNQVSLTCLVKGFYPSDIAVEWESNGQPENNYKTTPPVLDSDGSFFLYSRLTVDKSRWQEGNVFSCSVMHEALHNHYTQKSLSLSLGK
# light: AIQLTQSPSSLSASVGDRVTITCRASQDIDSALAWYQQKPGKAPKILIHDASSLESGVPSRFSGSGSGTDFTLTISSLQPEDFATYYCQQFNSYPYTFGQGTKLEIKRTVAAPSVFIFPPSDEQLKSGTASVVCLLNNFYPREAKVQWKVDNALQSGNSQESVTEQDSKDSTYSLSSTLTLSKADYEKHKVYACEVTHQGLSSPVTKSFNRGEC
# notes: Human IgG4(S241P), kappa; recombinant from HEK293-6E; also called WT mAb37
# B9: mAb61 (mAb37 variant, heavy chain D62E) (antibody, human IgG4 S228P, kappa, V domains shown)
# VH: B1 VH with D62E
# VL: B1 VL with K24R
# notes: Human IgG4(S241P), kappa
# B10: mAb62 (mAb37 variant, heavy chain K65R) (antibody, human IgG4 S228P, kappa, V domains shown)
# VH: B1 VH with K65R
# VL: B1 VL with K24R
# notes: Human IgG4(S241P), kappa
# B11: mAb65 (mAb37 variant, light chain D30E) (antibody, human IgG4 S228P, kappa, V domains shown)
# VH: B1 VH
# VL: B1 VL with K24R, D30E
# notes: Human IgG4(S241P), kappa
# How the values were obtained:
# [1] = target: T1, human recombinant IL-21 (expressed in E. coli as the mature peptide); residues 30-162 of SEQ ID NO: 1 with an … (human, UniProt Q9HBE4 30-162); test: cell-based or functional assay
# [2] = target: T1, human recombinant IL-21 (expressed in …); test: cell-based or functional assay; remark: listed apart in the source
# [3] = target: T1, human recombinant IL-21 (expressed in …); test: crystal structure, Areaimol (CCP4)
# Method: IL-21 (expressed in E. coli as the mature peptide; residues 30-162 of SEQ ID NO: 1 with an added N-terminal Methionine residue), in PBS buffer, pH 7.4 (4 tablets in 2 liter of water, GIBCO Cat. No. 18912-014 Invitrogen Corporation), and anti-IL-21 Fabs (comprising light chains and heavy chains corresponding to WT or mutants of SEQ ID No. 9 and 10, respectively, see example 6 and 14) formulated in PBS buffer, pH 7.4, were mixed in a 1:1 molar ratio. Crystals were grown with the sitting drop-technique with volumes according to Table 7. Total drop sizes were 0.2 or 0.3 μl, depending on the mixing ratio. Crystals were prepared for cryo-freezing by transferring of 3 μl of a cryo-solution, containing 75% of the precipitant solution and 25% glycerol, to the drop containing the crystal. Soakings were allowed for about one minute. The crystals were then fished into a MiTeGen MicroLoop™, flash frozen in liquid N2 and kept at a temperature of 100 K during data collection by a cryogenic N2 gas stream. Crystallographic data were collected at beam-line BL911-3 (Ursby et al., 2004) at MAX-lab, Lund, Sweden, to resolutions indicated in Table 8. Space group determination, integration and scaling of the data were made with the XDS software package (Kabsch, 2010). For the crystal complexes between hIL-21 and Fab56, Fab57 or Fab60, respectively, the Fab35/hIL-21 crystal structure were used as starting models for rigid body refinements in the Refmac5 software (Murshudov et al., 2011) of the CCP4 crystallography software suite (Bailey, 1994). Rigid body refinements were then followed by restrained crystallographic refinements, using the software programs Refmac5 and by computer graphics inspection of the electron density maps, model corrections and building using the Coot software program (Emsley et al., 2010). The procedure was cycled until no further significant improvements could be made to the model. Table 10, 11 and 13.
# Table 9 show the calculated (by the software Areaimol (Lee & Richards, 1971, Saff & Kuijlaars, 1997)), average areas excluded in pair-wise interactions for the hIL-21/Fab56, hIL-21/Fab57, hIL-21/Fab59 and hIL-21/Fab60 complexes, respectively.
# [4] = target: T1, human recombinant IL-21 (expressed in …); test: SPR Biacore T200, 25 C; mAb captured by anti-human Fc, hIL-21 analyte, 1:1 Langmuir; Exp 2
# Method: (§1) Anti-human Fc monoclonal antibodies from Biacore human Fc capture kit was immobilized onto flow cells of a CM4 sensor chip according to the manufacturer's instructions. The final immobilization level of capture antibody was approximately 2,500 RU in one experiment. […] Binding of hIL-21 protein was conducted by injecting analyte over all flow cells to allow for comparative analyses of binding to different captured anti-IL-21 antibodies relative to binding to the reference flow cell. hIL-21 protein was diluted serially 1:3 to 2-162 nM into running buffer, injected at 100 μl/min for 210 s and allowed to dissociate for 600 or 14000 s. The CM4 surface was regenerated after each injection cycle of analyte via two injections of 3M MgCl₂ at 50 μl/min. This regeneration step removed the anti-IL-21 antibody and any bound IL-21 from the immobilized capture antibody surface, and allowed for the subsequent binding of the next interaction sample pair.
# (§2) No significant non-specific binding to the reference control surface was observed. Binding curves were processed by double referencing (subtraction of reference surface signals as well as blank buffer injections over captured anti-IL-21 antibodies). This allowed correction for instrument noise, bulk shift and drift during sample injections.
# [5] = target: T1, human recombinant IL-21 (expressed in …); test: SPR Biacore T200, 25 C; mAb captured by anti-human Fc, IL-21 analyte, 1:1 Langmuir
# Method: (§3) Experiments were run at 25° C. and the samples were stored at 10° C. in the sample compartment. The signal (RU, response units) reported by the Biacore is directly correlated to the mass on the individual sensor chip surfaces in four serial flow cells.
# Anti-human Fc monoclonal antibody from Biacore human Fc capture kit was immobilized onto flow cells of a CM4 sensor chip according to the manufacturer's instructions. The final immobilization level of capture antibody was approximately 2,000 RU in one experiment. […] Capture of the human anti-IL-21 antibody mAb37 was conducted by diluting the antibody to 0.1 μg/ml into running buffer (10 mM Hepes 0.3 M NaCl, 5 mM CaCl2, 0.05% surfactant P20, pH 8.0 containing 1 mg/ml BSA) and injected at 10 μl/min for 180 s in one of flow cells 2-4, creating a reference surface in flow cell 1 with only anti-Fc antibody immobilized. […] Binding of IL-21 protein was conducted by injecting analyte over all flow cells to allow for comparative analyses of binding to different captured anti-IL-21 antibodies relative to binding to the reference flow cell. IL-21 protein was diluted serially 1:3 to 0.2-54 nM into running buffer, injected at 100 μl/min for 210 s and allowed to dissociate for 600 or 14000 s. The CM4 surface was regenerated after each injection cycle of analyte via two injections of 3M MgCl₂ at 50 μl/min. […]
# [6] = target: T1, human recombinant IL-21 (expressed in …); test: SPR Biacore T200, calculated KD; Exp 2
# Method: as §1, §2
# [7] = target: T1, human recombinant IL-21 (expressed in …); test: SPR Biacore T200, 25 C; mAb captured by anti-human Fc, hIL-21 analyte, 1:1 Langmuir; Exp 1
# Method: as §1, §2
# [8] = target: T1, human recombinant IL-21 (expressed in …); test: SPR Biacore T200, 25 C; mAb captured by anti-human Fc, IL-21 analyte, 1:1 Langmuir; remark: listed apart in the source
# Method: as §3
# Anti-human Fc monoclonal antibody from Biacore human Fc capture kit was immobilized onto flow cells of a CM4 sensor chip according to the manufacturer's instructions. The final immobilization level of capture antibody was approximately 2,000 RU in one experiment. […] Capture of the human anti-IL-21 antibody mAb37 was conducted by diluting the antibody to 0.1 μg/ml into running buffer (10 mM Hepes 0.3 M NaCl, 5 mM CaCl2, 0.05% surfactant P20, pH 8.0 containing 1 mg/ml BSA) and injected at 10 μl/min for 180 s in one of flow cells 2-4, creating a reference surface in flow cell 1 with only anti-Fc antibody immobilized. […] Binding of IL-21 protein was conducted by injecting analyte over all flow cells to allow for comparative analyses of binding to different captured anti-IL-21 antibodies relative to binding to the reference flow cell. IL-21 protein was diluted serially 1:3 to 0.2-54 nM into running buffer, injected at 100 μl/min for 210 s and allowed to dissociate for 600 or 14000 s. The CM4 surface was regenerated after each injection cycle of analyte via two injections of 3M MgCl₂ at 50 μl/min. This regeneration step removed the anti-IL-21 antibody and any bound IL-21 from the immobilized capture antibody surface, and allowed for the subsequent binding of the next interaction sample pair. […] No significant non-specific binding to the reference control surface was observed.
# [9] = target: T1, human recombinant IL-21 (expressed in …); test: SPR Biacore T200, calculated KD; Exp 1
# Method: as §1, §2
# [10] = target: T1, human recombinant IL-21 (expressed in …); test: SPR Biacore T200; mAb captured by anti-human Fc, hIL-21 analyte
# Method: as §1, §2
# T1 sequence (Q9HBE4 other isoform, or with tags, fused parts or gaps): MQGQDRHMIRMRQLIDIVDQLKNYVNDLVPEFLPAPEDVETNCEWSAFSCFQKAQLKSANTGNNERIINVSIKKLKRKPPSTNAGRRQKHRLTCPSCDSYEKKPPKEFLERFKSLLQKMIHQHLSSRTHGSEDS
binder,measurement,setting,value
B1,"IC50 (nM) in B cell proliferation assay, Donor 1",[1],0.16 nM
same,"IC50 (nM) in B cell proliferation assay, Donor 2",[1],0.25 nM
same,"Bioactivity as % of RM (mAb37), NK-92 assay (alamarBlue)",[2],92.1 % of RM (mAb37)
B2,Avr Area (average areas excluded in pairwise interactions),[3],1060 Å^2
B3,"IC50 (nM) in B cell proliferation assay, Donor 1",[1],0.8 nM
same,"IC50 (nM) in B cell proliferation assay, Donor 2",[1],0.74 nM
same,"Bioactivity as % of RM (mAb37), NK-92 assay (alamarBlue)",[2],116 % of RM (mAb37)
B4,Avr Area (average areas excluded in pairwise interactions),[3],1170 Å^2
B5,Avr Area (average areas excluded in pairwise interactions),[3],1070 Å^2
B6,Avr Area (average areas excluded in pairwise interactions),[3],1100 Å^2
B7,Avr Area (average areas excluded in pairwise interactions),[3],1070 Å^2
B8,koff,[4],< 1e-05 s⁻¹
same,kon,[4],660000 M⁻¹ s⁻¹ and 620000 M⁻¹ s⁻¹
same,Kd,[5],< 0.02 nM
same,"IC50 (nM) in B cell proliferation assay, Donor 1",[1],0.14 nM
same,"IC50 (nM) in B cell proliferation assay, Donor 2",[1],0.18 nM
same,Kd,[6],< 0.015 nM
same,koff,[7],< 1e-05 s⁻¹
same,kon,[7],570000 M⁻¹ s⁻¹ and 590000 M⁻¹ s⁻¹ and 580000 M⁻¹ s⁻¹
same,Kd,[8],0.007 nM and 0.0075 nM and 0.011 nM
same,koff,[8],4.5e-06 s⁻¹ and 6.4e-06 s⁻¹
same,kon,[8],640000 M⁻¹ s⁻¹ and 600000 M⁻¹ s⁻¹
same,Kd,[9],< 0.017 nM
B9,koff,[4],< 1e-05 s⁻¹
same,kon,[4],660000 M⁻¹ s⁻¹ and 670000 M⁻¹ s⁻¹
same,"IC50 (nM) in B cell proliferation assay, Donor 1",[1],0.22 nM
same,"IC50 (nM) in B cell proliferation assay, Donor 2",[1],0.21 nM
same,"Bioactivity as % of RM (mAb37), NK-92 assay (alamarBlue)",[2],86.2 % of RM (mAb37)
same,Kd,[6],< 0.015 nM
same,Kd,[10],< 0.02 nM
B10,"IC50 (nM) in B cell proliferation assay, Donor 2",[1],0.23 nM
same,"Bioactivity as % of RM (mAb37), NK-92 assay (alamarBlue)",[2],73.2 % of RM (mAb37)
same,Kd,[10],< 0.02 nM
same,koff,[7],< 1e-05 s⁻¹
same,kon,[7],560000 M⁻¹ s⁻¹ and 580000 M⁻¹ s⁻¹ and 600000 M⁻¹ s⁻¹
same,Kd,[9],< 0.017 nM
B11,"IC50 (nM) in B cell proliferation assay, Donor 1",[1],0.49 nM
same,"IC50 (nM) in B cell proliferation assay, Donor 2",[1],0.19 nM
same,"Bioactivity as % of RM (mAb37), NK-92 assay (alamarBlue)",[2],96.8 % of RM (mAb37)
same,Kd,[10],< 0.02 nM
same,koff,[7],< 1e-05 s⁻¹
same,kon,[7],520000 M⁻¹ s⁻¹ and 530000 M⁻¹ s⁻¹ and 540000 M⁻¹ s⁻¹
same,Kd,[9],< 0.019 nM
